Data from paper PMC7932536.

What was measured:
[1] = target: Human amyloid beta (Aβ) 42 peptide (human) (UniProt P05067)
[2] = target: Human amyloid beta (Aβ) 42 peptide (human) (UniProt P05067); remark: listed apart in the source

Sequence of SAMP8 type Serpina3n (Q91WP6 21-418): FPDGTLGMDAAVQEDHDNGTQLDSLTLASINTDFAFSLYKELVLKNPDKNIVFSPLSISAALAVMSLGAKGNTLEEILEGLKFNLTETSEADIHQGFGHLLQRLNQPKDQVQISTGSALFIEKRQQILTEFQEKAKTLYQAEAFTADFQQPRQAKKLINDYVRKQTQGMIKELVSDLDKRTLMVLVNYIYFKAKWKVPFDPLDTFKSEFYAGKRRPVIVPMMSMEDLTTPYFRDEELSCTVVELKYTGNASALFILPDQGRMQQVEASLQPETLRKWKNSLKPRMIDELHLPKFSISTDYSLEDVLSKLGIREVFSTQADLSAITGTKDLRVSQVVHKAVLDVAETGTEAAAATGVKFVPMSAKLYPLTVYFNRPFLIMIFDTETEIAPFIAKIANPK

- prevalence of oligomer rich observation fields of Aβ 42 under TEM, 0 to 72 hr of preincubation (delayed fibrillization) [1]: 72 h
- thioflavin T fluorescence assay of Aβ 42 fibrillization (time for which oligomeric or small protofibrillar forms were kept before the plateau) [2]: 13 h
Substance: SAMP8 type Serpina3n (from UniProt Q91WP6 21-418) (natural protein)
